Results taken from paper PMC7949130.

What was measured:
[1] = target: nonsulfated human cationic trypsin purified from E. coli (human); assay: equilibrium binding assay; equilibrium dissociation constant of ecotin on human trypsins, 15 h of incubation; further conditions not told for ecotin
[2] = target: native sulfated human cationic trypsin purified from pancreatic juice (human); assay: as above

Kd [1]: 8.1 pM | Kd [2]: 5.6 pM
Substance: ecotin (from UniProt P23827 21-162) (natural protein)
